{"source": "patent US20240140995A1", "about": "(ROCHE DIAGNOSTICS OPERATIONS, published 2024)", "binders": {"B1": {"name": "E. coli ColE-7 (other)", "chain": "ESKRNKPGKATGKGKPVNNKWLNNAGKDLGSPVPDRIANKLRDKEFKSFDDFRKKFWEEVSKDPELSKQFSRNNNDRMKVGKAPKTRTQDVSGKRTSFELHHEKPISQNGGVYDMDNISVVTPKRHIDIHRGK"}, "B2": {"name": "E. coli IM-7, singly biotinylated (other)", "chain": "MELKNSISDYTEAEFVQLLKEIEKENVAATDDVLDVLLEHFVKITEHPDGTDLIYYPSDNRDDSPEGIVKEIKEWRAANGKPGFKQG"}}, "key": {"[1]": {"target": "GthIM (Geobacillus thermoglucosidasius immunity protein, C18A, engineered), singly biotinylated (Geobacillus thermoglucosidasius)", "assay": "SPR Biacore T200, 37 C, single cycle kinetics; biotinylated immunity protein on streptavidin sensor, colicin analyte 1.1-90 nM"}, "E. coli ColE-7 [2]": {"target": "B1", "assay": "SPR Biacore T200, 37 C, single cycle kinetics"}, "E. coli ColE-7 [3]": {"target": "B1", "assay": "SPR Biacore T200, 37 C, single cycle kinetics; biotinylated immunity protein on streptavidin sensor, colicin analyte 1.1-90 nM"}}, "data": [{"binder": "B1", "values": [{"measurement": "Kd", "setting": "[1]", "value": 13, "unit": "nM"}, {"measurement": "koff", "setting": "[1]", "value": 0.1, "unit": "s⁻¹"}, {"measurement": "kon", "setting": "[1]", "value": "1e+07", "unit": "M⁻¹ s⁻¹"}]}, {"binder": "B2", "values": [{"measurement": "complex half-life t/2-diss", "setting": "E. coli ColE-7 [2]", "value": "> 19.2", "unit": "h"}, {"measurement": "Kd", "setting": "E. coli ColE-7 [3]", "value": "< 0.0057", "unit": "nM"}, {"measurement": "MR (Molar Ratio, binding stoichiometry)", "setting": "E. coli ColE-7 [3]", "value": 1.2}, {"measurement": "koff", "setting": "E. coli ColE-7 [3]", "value": "< 1e-05", "unit": "s⁻¹"}, {"measurement": "kon", "setting": "E. coli ColE-7 [3]", "value": "1.8e+06", "unit": "M⁻¹ s⁻¹"}]}]}
